Reference: publication PMC11154707, “Polymer-based antibody mimetics (iBodies) target human PD-L1 and function as a potent immune checkpoint blocker” (The Journal of Biological Chemistry, 2024)

Assays:
[1] = target: T1, PD-1/PD-L1 engagement (hPD-L1-overexpressing Raji B cells, hPD-1-overexpressing Jurkat T cells) (Homo sapiens, UniProt Q9NZQ7); test: IL-2 production in PD-L1 Raji B / PD-1 Jurkat T cell co-culture with SEE; type: cell-based; details: 25 pg/ml SEE, 24 h co-culture, IL-2 ELISA of supernatants; read-out: EC50 of restored T cell activation (IL-2)
T1 construct: expressed in transfected cells; host or cells: Raji B cells (PD-L1) co-cultured with Jurkat T cells (PD-1)
T1 sequence (Q9NZQ7 19-290): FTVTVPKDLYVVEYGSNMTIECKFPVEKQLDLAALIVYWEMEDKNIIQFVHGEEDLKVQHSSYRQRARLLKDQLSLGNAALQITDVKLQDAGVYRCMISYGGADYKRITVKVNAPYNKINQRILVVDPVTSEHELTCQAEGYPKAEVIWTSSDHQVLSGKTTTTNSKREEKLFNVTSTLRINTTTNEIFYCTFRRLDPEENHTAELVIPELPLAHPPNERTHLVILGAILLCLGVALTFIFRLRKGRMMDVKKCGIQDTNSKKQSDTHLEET
Method: (§1) B, PD-L1-overexpressing Raji B cells were pre-incubated with a dilution series of α-PD-L1 compounds in the presence of 25 pg/ml SEE for 1 h and then co-cultured in a 1:1 ratio with PD-1-overexpressing Jurkat T cells for 24 h. Supernatants were collected, and IL-2 levels were measured using ELISA. EC50 was calculated using a 4-parameter logistic function in GraphPad Prism 9.0.0. Data are representative of five independent experiments performed in duplicates, with error bars indicating the standard deviation. C, PD-L1-overexpressing Raji B cells were pre-incubated with 2 nM of α-PD-L1 compounds in the presence of 25 pg/ml SEE for 1 h and then co-cultured in a 1:1 ratio with PD-1-overexpressing Jurkat T cells for 18 h. Cells were collected and stained with BV421-conjugated anti-human CD69 antibody. […] Cells were measured with a BD LSRFortessa instrument (Fig. S9). Data are represented as median fluorescence intensity (MFI). Error bars indicate the standard deviation. D, histograms indicate the percentage of CD69-expressing cells (gated above the basal CD69 expression in the absence of SEE; no SEE). Data were analyzed with FlowJo 10.4.1 and are representative of three independent experiments performed in duplicates. MFI comparison was carried out using a one-way ANOVA test in GraphPad Prism 9.0.0. ∗∗ indicates p-value < 0.01; ns = not significant.

[2] = target: T1, PD-1/PD-L1 engagement (hPD-L1-overexpressing Raji B cells, hPD-1-overexpressing Jurkat T cells); test: Membrane CD69 expression in PD-L1 Raji B / PD-1 Jurkat T cell co-culture with SEE; type: cell-based; details: 2 nM compound, 18 h co-culture; for overall expression of CD69 compared with non-treated samples: MFI, one-way ANOVA; for % CD69 (percentage of CD69-expressing cells): gated above basal CD69 without SEE
Method: as §1
Co-culture for analysis of CD69 expression was set up similarly as above, except that cells were incubated for 18 h in the presence of 2 nM of all compounds. Next, cells were collected by centrifugation (600g, 6 min) and washed once with 200 μl PBS. Corresponding wells were stained with 100 μl of 1:100 BV421-anti-human CD69 antibody (BD Biosciences, cat# 562884) or 100 ng/well isotype control antibody (BD Biosciences cat# 562438) in PBS for 30 min at 4 °C. Afterwards, cells were washed three times with 200 μl PBS followed by viability staining using 100 μl of 1:1000 Zombie NIR fixable viability kit (Biolegend, cat# 423106) in PBS. Finally, the measurement was carried out on an LSRFortessa Flow Cytometer (Becton, Dickinson and Company) and analyzed with FlowJo 10.4.1. The cell population was gated based on their forward and side scatter properties, followed by gating for single and viable cells. The Gating strategy is explained in the Fig. S9.

PD-L1 [3] = tested on: PD-L1; set-up: method as in http://en.atagenix.com/product_detail-23647.html, 30; details: indirect ELISA; ref http://en.atagenix.com/product_detail-23647.html, 30; read-out: published EC50, indirect ELISA; cited from earlier work
PD-L1 [4] = details: read-out: published Kd; cited from earlier work

For “durvalumab: FDA-approved PD-L1-targeting monoclonal antibody”, the EC50 [1] was 0.6 nM, the “overall expression of CD69 compared with non-treated samples” value [2] was “substantial increase” and the “% CD69 (percentage of CD69-expressing cells)” value [2] was 36±1%. For the same substance, the EC50 (PD-L1 [3]) was about 0.32 nM.

In the case of “avelumab: FDA-approved PD-L1-targeting monoclonal antibody”, the Kd (PD-L1 [4]) is listed as 0.04 nM.

In the case of “atezolizumab: FDA-approved PD-L1-targeting monoclonal antibody”, the EC50 [1] is reported as 0.3 nM, the “overall expression of CD69 compared with non-treated samples” value [2] is reported as “substantial increase” and the “% CD69 (percentage of CD69-expressing cells)” value [2] is reported as 33±4%.
